Data set [1] in a line: Circular dichroism spectroscopy of conformational properties. The data set is classed as physicochemical. The note with it: in TFE, 295K. As to the method: The conformational properties of TASP-V were studied in solution mainly by circular dichroism (CD) spectroscopy under various experimental conditions. In order to detect effects of template attachment on secondary and tertiary structure formation, the corresponding single (not template attached) peptide IV was also studied.
CD spectra were recorded on a Jobin Yvon Dichrograph Mark VI calibrated with D(+)-10-camphorsulfonic acid. All measurements were performed at 295K using quartz cells with a path length of 0.1 cm and each spectrum was the average of three repeated scans between 185 nm to 250 nm, with an integration time of Is for 0.8 nm steps. The spectra were corrected by substraction of the background solvent spectrum obtained under identical experimental conditions and smoothed for clarity of display. CD intensities are expressed as mean residue ellipticities (deg cm2 dmol-1), calculated by dividing the total molar ellipticities by the number of amino acids in the peptide.

For data set [2], the system named is domestic pigs. The following applies: pig, in vivo.
Experimental: Experiments were performed on 16 domestic pigs of both sexes (body weight 20-30 kg). The animals were premedicated with atropine (0.05 mg/kg) and ketamine (Ketalar, ParkeDavis, USA, 20 mg/kg i.m.) and anaesthetized with thiopentone (5 mg/kg i.v.). A tracheostomy was performed and artificial ventilation was started using a volume regulated ventilator (type Siemens 900). During surgery, continuous i.v. infusion of Ringer's solution, thiopentone (15 mg/kg/h) and pancuronium bromide (0.25 mg/kg/h) was performed.
Catheters were placed in the femoral artery for systemic blood pressure and heart rate monitoring and in the femoral vein for thiopentone and fluid administration (300 ml/h). […] Nasal arterial blood flow was monitored with a Transonic flow probe (RB 143) placed around the sphenopalatine artery and connected to a T 202 ultrasonic blood flowmeter (Transonic System Inc., Ithaca, N.Y., USA).
Heart rate and systemic arterial blood pressure using the femoral artery catheter connected to a pressure transducer.
Sphenopalatine arterial blood flow using an Ultrasonic flow meter probe (see above).
Data set [3] concerns domestic pigs. The following applies: pig, in vivo. This is another data set of the same source.
Experimental: Experiments were performed on 16 domestic pigs of both sexes (body weight 20-30 kg). The animals were premedicated with atropine (0.05 mg/kg) and ketamine (Ketalar, ParkeDavis, USA, 20 mg/kg i.m.) and anaesthetized with thiopentone (5 mg/kg i.v.). A tracheostomy was performed and artificial ventilation was started using a volume regulated ventilator (type Siemens 900). During surgery, continuous i.v. infusion of Ringer's solution, thiopentone (15 mg/kg/h) and pancuronium bromide (0.25 mg/kg/h) was performed. […]
2. […] Airway pressure was measured from a catheter positioned at the tip of the endotracheal tube. Transpulmonary pressure was determined by a differential pressure transducer (Hewlett-Packard 267B) taking the difference between tracheal and oesophagus pressure. Tidal volume was determined by integration of the respiratory flow signal measured with a pneumotachograph (Gould Godard, model 17212) by means of a heated Fleisch flow transducer #2 connected to the endotracheal tube. Transpulmonary pressure, tidal volume and flow were continuously recorded on a 4-channel recorder (Hewlett-Packard, 7754 GB). Total airflow resistance across the lungs (raw) was determined by dividing the difference in transpulmonary pressure by inspiratory plus expiratory flow at mid-tidal volume. […]
In the next data set the target is T1, NPY Y2 receptor (Homo sapiens, UniProt P49146).
T1 construct: endogenous in cells; host or cells: LN319 (human glioblastoma)
T1 sequence (P49146 1-381): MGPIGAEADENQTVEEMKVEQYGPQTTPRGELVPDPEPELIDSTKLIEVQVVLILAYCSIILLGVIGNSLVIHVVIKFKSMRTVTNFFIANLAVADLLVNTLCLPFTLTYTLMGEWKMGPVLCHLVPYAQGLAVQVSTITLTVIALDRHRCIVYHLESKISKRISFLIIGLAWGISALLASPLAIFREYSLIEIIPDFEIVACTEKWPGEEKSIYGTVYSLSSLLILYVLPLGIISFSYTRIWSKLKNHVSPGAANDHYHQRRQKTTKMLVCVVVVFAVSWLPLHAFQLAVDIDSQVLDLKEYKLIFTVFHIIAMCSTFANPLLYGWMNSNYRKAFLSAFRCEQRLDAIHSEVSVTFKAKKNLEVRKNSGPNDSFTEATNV
Kind of data set: Y2 radioreceptor binding assay (125I-NPY displacement, LN319 cells). The following applies: FIG. 7. As to the method:
Tissue culture media were purchased from Life Technologies (Basel, Switzerland) and fetal calf serum was obtained from Seromed (Berlin, Germany). 70% confluent cells were washed with PBS and harvested using 0.15% Trypsin containing 0.4 mM EDTA. Cells were further diluted 1/3 and plated onto either 60 mm cell culture dishes (Nunc, Denmark) or 12-mm glass coverslips (Huber and Co, AG, Reinach, Switzerland). Media were changed every 3 days. A human glioblastoma cell line, LN319, was used for Y2 binding studies (Greber, et al., Br. J. Pharmacol. 113:737-740 (1994)). Prior to performing binding assays, adhered LN319 cells were washed extensively with phosphate buffered saline. […] After centrifugation at 600 g for 15 minutes at a temperature of 4° C., the pellet was resuspended in the harvesting buffer. […] Incubation proceeded at room temperature for 45 minutes. Bound radioactivity was determined after separating the unbound fraction by centrifugation.

Entries after “also recorded” stand apart in the source; their conditions may differ. Like-named read-outs stand apart in the source and are kept apart here. The star is where a group is joined. aminooxyacetyl = NOCC(=O)*

With “IV: single, not template attached aminooxyacetyl NPY21-36 amide peptide (IV in FIG. 5) (aminooxyacetyl-YSALRHYINLITRQRY-NH2; SMILES CC[C@H](C)[C@H](NC(=O)[C@H](Cc1ccc(O)cc1)NC(=O)[C@H](Cc1c[nH]cn1)NC(=O)[C@H](CCCNC(=N)N)NC(=O)[C@H](CC(C)C)NC(=O)[C@H](C)NC(=O)[C@H](CO)NC(=O)[C@H](Cc1ccc(O)cc1)NC(=O)CON)C(=O)N[C@@H](CC(N)=O)C(=O)N[C@@H](CC(C)C)C(=O)N[C@H](C(=O)N[C@H](C(=O)N[C@@H](CCCNC(=N)N)C(=O)N[C@@H](CCC(N)=O)C(=O)N[C@@H](CCCNC(=N)N)C(=O)N[C@@H](Cc1ccc(O)cc1)C(N)=O)[C@@H](C)O)[C@@H](C)CC; UniProt P01303 49-64, looked up, fragment)”, the “Helicity / secondary structure content by CD” value in data set [1] was below 30%. Take `CC[C@H](C)[C@H](NC(=O)[C@H](Cc1ccc(O)cc1)NC(=O)[C@H](Cc1c[nH]cn1)NC(=O)[C@H](CCCNC(=N)N)NC(=O)[C@H](CC(C)C)NC(=O)[C@H](C)NC(=O)[C@H](CO)NC(=O)[C@H](Cc1ccc(O)cc1)NC(=O)CNC(=O)CON=CC(=O)NCCCC[C@@H]1NC(=O)CNC(=O)[C@H](CCCCNC(=O)C=NOCC(=O)NCC(=O)N[C@@H](Cc2ccc(O)cc2)C(=O)N[C@@H](CO)C(=O)N[C@@H](C)C(=O)N[C@@H](CC(C)C)C(=O)N[C@@H](CCCNC(=N)N)C(=O)N[C@@H](Cc2c[nH]cn2)C(=O)N[C@@H](Cc2ccc(O)cc2)C(=O)N[C@H](C(=O)N[C@@H](CC(N)=O)C(=O)N[C@@H](CC(C)C)C(=O)N[C@H](C(=O)N[C@H](C(=O)N[C@@H](CCCNC(=N)N)C(=O)N[C@@H](CCC(N)=O)C(=O)N[C@@H](CCCNC(=N)N)C(=O)N[C@@H](Cc2ccc(O)cc2)C(N)=O)[C@@H](C)O)[C@@H](C)CC)[C@@H](C)CC)NC(=O)c2ccc3cccc(c3c2)CNC1=O)C(=O)N[C@@H](CC(N)=O)C(=O)N[C@@H](CC(C)C)C(=O)N[C@H](C(=O)N[C@H](C(=O)N[C@@H](CCCNC(=N)N)C(=O)N[C@@H](CCC(N)=O)C(=O)N[C@@H](CCCNC(=N)N)C(=O)N[C@@H](Cc1ccc(O)cc1)C(N)=O)[C@@H](C)O)[C@@H](C)CC` [TASP-V]: the “Change in heart rate or mean arterial blood pressure” value with domestic pigs [2] and with domestic pigs [3] was “did not induce any change” throughout.

As for “Leu31, Pro34 NPY: Leu31- and Pro34-substituted NPY, shown to be a Y1 agonist”, the “Affinity / binding to the Y2 receptor (in words)” value in the data set with NPY Y2 receptor was “poor affinity binding; also recorded: bound poorly”.

For the origin of these results see patent US20040009905A1 (B.M.R.A. Corporation B.V., priority 1998, published 2004).
